The text below walks through data of the supplement of paper PMC9170038.

The data set has as its system MS2 coat protein. Briefly: apparent KD of MS2 coat protein; designed switch direction (-1 OFF switch, 1 ON switch): 1; higher = weaker reporter binding. In short, it runs like this:
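For each design, the apparent KD is the median over clusters of curves fitted to normalised cluster fluorescence. Clusters held RNA switches with common flanks, transcribed on Illumina chips by stalled E. coli RNA polymerase. These were titrated with SNAP-549-labelled MS2 coat protein, doubling from 0.7 or 1.5 nM to 3 µM, without input, with 200 uM small-molecule ligand, or with an oligonucleotide input.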

Setting [1] is: Eterna round: R95, input ligand: FMN 200 uM.
The mark [2] stands for this setting: Eterna round: R95, input ligand: microRNA oligo, concentration not stated.
The mark [3] stands for this setting: Eterna round: R95, input ligand: none.
The mark [4] stands for this setting: input ligand: microRNA oligo, concentration not stated.

Turning to “UCUAGACAUGAGGAUCACCCAUGUCGAUAUGACACAGGAUAUCGGUACUCAUAGAGUACGCGAGAAGGGUGACUUC [Same State 1 - Mod of Vinnie Gere v.3] (puzzle: Same State 1)”, the “apparent KD of MS2 coat protein” value under setting [1] was determined as 0.112 µM, the “apparent KD of MS2 coat protein” value under setting [2] was found to be 0.115 µM and the “apparent KD of MS2 coat protein” value under setting [3] came out at 0.166 µM.
With “UCUGCAAGAACAGGAUAUGGGUUCAGAGCGGGAGUGCGCUUUGAUACAUGAGGAUCACCCAUGUCCCAGAAGGGUUCAAGCGGC [Maedraedbi] (Eterna round: R96, puzzle: Same State NG 2)”, the “apparent KD of MS2 coat protein” value turned out to be 0.0329 µM (input ligand: FMN 200 uM), 0.0352 µM under setting [4] and 0.188 µM (input ligand: none).
As to “UCUUGGUUUUUGCUCGUUUUUUGUGUUGAACAUGAGGAUCACCCAUGUAUUGUACAAUCCAAUUUAAUAAUGGUCCA [Mod of one of JR's submissions 3] (puzzle: Sensor for hsa-mir-208a)”, the “apparent KD of MS2 coat protein” value under setting [1] stood at 0.0442 µM, the “apparent KD of MS2 coat protein” value under setting [2] worked out at 0.0422 µM and the “apparent KD of MS2 coat protein” value under setting [3] was 0.0478 µM.
On to “UCUUGGUUUUUGCUCGUUUUUUGUGUUGAACAUGAGGAUCACCCAUGUAUUGUACAAUCCAAUUUAAUAAUGGUCCG [JMF 48] (Eterna round: R96, puzzle: Sensor for hsa-mir-208a)”, for which the “apparent KD of MS2 coat protein” value came out at 0.105 µM (input ligand: FMN 200 uM), 0.0701 µM under setting [4] and 0.0992 µM (input ligand: none).
In the case of “UCUUGGUUUUUGCUCGUUUUUUGUGUUGAACAUGAGGAUCACCCAUGUAUUGUACAAUCCAAUUUAAUAAUGGUCCG [JMF 48] (puzzle: Sensor for hsa-mir-208a)”, the “apparent KD of MS2 coat protein” value reads like this: under setting [1], 0.0747 µM; under setting [2], 0.0817 µM; under setting [3], 0.094 µM.
As for “UCUUGGUUUUUGCUCGUUUUUUGUGUUGAACAUGAGGAUCACCCAUGUAUUGUACAGUCCAAUUUGAUAAUGGUCCG [JMF 54] (Eterna round: R96, puzzle: Sensor for hsa-mir-208a)”, the “apparent KD of MS2 coat protein” value runs as follows: (input ligand: FMN 200 uM) 0.0502 µM; under setting [4], 0.0281 µM; (input ligand: none) 0.0551 µM.
With “UCUUGGUUUUUGCUCGUUUUUUGUGUUGAACAUGAGGAUCACCCAUGUAUUGUACAGUCCAAUUUGAUAAUGGUCCG [JMF 54] (puzzle: Sensor for hsa-mir-208a)”, the “apparent KD of MS2 coat protein” value is, setting by setting: under setting [1], 0.0376 µM; under setting [2], 0.0323 µM; under setting [3], 0.044 µM.
Regarding “UCUUGGUUUUUGCUCGUUUUUUGUGUUGAACAUGAGGAUCACCCAUGUAUUGUACGAUCCAGUUAGAUGGUGGUUUG [JR_SHM208A_Sub044] (puzzle: Sensor for hsa-mir-208a)”, the “apparent KD of MS2 coat protein” value is, setting by setting: under setting [1], 0.0631 µM; under setting [2], 0.0701 µM; under setting [3], 0.0919 µM.
Regarding “UCUUGGUUUUUGCUCGUUUUUUGUGUUGAACAUGAGGAUCACCCAUGUAUUGUACGAUCCGAUUUAAUAAUGGUCCG [JMF 62] (puzzle: Sensor for hsa-mir-208a)”, the “apparent KD of MS2 coat protein” value by setting is: under setting [1], 0.0632 µM; under setting [2], 0.0557 µM; under setting [3], 0.0831 µM.
For “UCUUGGUUUUUGCUCGUUUUUUGUGUUGAACAUGAGGAUCACCCAUGUAUUGUACGGUCCAGUUUAGUGGUAAUCCG [JMF 69] (puzzle: Sensor for hsa-mir-208a)”, in that order: 0.0339 µM, 0.0206 µM and 0.0368 µM.
The corresponding values for “UCUUGGUUUUUGCUCGUUUUUUGUGUUGAACAUGAGGAUCACCCAUGUAUUGUACGGUCCGGUUUAAUAGUGGUCCG [JMF 14] (puzzle: Sensor for hsa-mir-208a)” are 0.0278 µM, 0.0154 µM and 0.0283 µM.
For “UGAACCGUCACAGGAUAUCAUGCGAAAAUUGCGUGAGAAGGGUGGAUGUUGUGCUCAAAGUUCUACAUGAGGAUCACCCAUGUU [SameState NG1 #44] (Eterna round: R96, puzzle: Same State NG 1)”, the “apparent KD of MS2 coat protein” value reads like this: (input ligand: FMN 200 uM) 0.0619 µM; under setting [4], 0.0335 µM; (input ligand: none) 0.0605 µM.
For “UGAAUAAUGUUAGGAUAUACAUGAGGAAUCCUCGUAGAAGGAACAUGACAUGAGGAUCACCCAUGUAGCGCUCCGUAGAGCGCA [Mat - Same State NG 1 - JL mod - D49] (Eterna round: R96, puzzle: Same State NG 1)”, the “apparent KD of MS2 coat protein” value reads like this: (input ligand: FMN 200 uM) 0.111 µM; under setting [4], 0.0395 µM; (input ligand: none) 0.25 µM.
For the sequence “UGAAUACAUGAGGAUCACCCAUGUCAACGUAGUCGAGGAUAUGGGCAGCCGUGAGGCGUACUAGAAGGCGAAGAGG [JL-ss1-3.07 ViennaUCT mod] (puzzle: Same State 1)”, the “apparent KD of MS2 coat protein” value reads like this: under setting [1], 0.131 µM; under setting [2], 0.0899 µM; under setting [3], 0.175 µM.
Take “UGAAUAGUUACAGGAUAUGAUCCGAAAAUUGGGUCAGAAGGGUGGGUGUUGUGCGCUAUGUGCUACAUGAGGAUCACCCAUGUU [SameState NG1 #36] (Eterna round: R96, puzzle: Same State NG 1)”: the “apparent KD of MS2 coat protein” value runs as follows: (input ligand: FMN 200 uM) 0.341 µM; under setting [4], 0.0225 µM; (input ligand: none) 0.0412 µM.
As for “UGAAUGGUGAUAGGAUAUACAUGAGGAAUCCUCGUAGAAGGAUCAUGACAUGAGGAUCACCCAUGUAGCGCUCAGAAGAGCGCA [Mat - Same State NG 1 - JL mod - D53] (Eterna round: R96, puzzle: Same State NG 1)”, the “apparent KD of MS2 coat protein” value reads like this: (input ligand: FMN 200 uM) 0.129 µM; under setting [4], 0.0424 µM; (input ligand: none) 0.0839 µM.
The corresponding values for “UGAAUGGUGAUAGGAUAUACAUGAGGAAUCCUCGUAGAAGGAUCAUGACAUGAGGAUCACCCAUGUAGCGCUCCGUAGAGCGCA [JL SSNG1 1.21] (Eterna round: R96, puzzle: Same State NG 1)” are 0.053 µM, 0.0197 µM and 0.154 µM.
With “UGACACACGGCAGGAUAUCCUUAGCAAAGCUAAGGAGAAGGGCCUCAUGUCGUGGAAACGUGACAUGAGGAUCACCCAUGUUGC [Omei SS(NG)1 Cv7] (Eterna round: R96, puzzle: Same State NG 1)”, the “apparent KD of MS2 coat protein” value was 0.154 µM (input ligand: FMN 200 uM), 0.0181 µM under setting [4] and 0.085 µM (input ligand: none).
As for “UGACACACGGCAGGAUAUCGUUAGCAAAGCUAACGAGAAGGGCCUCAUGUCGUGGAAACGUGACAUGAGGAUCACCCAUGUUGC [Omei SS(NG)1 Cv10] (Eterna round: R96, puzzle: Same State NG 1)”, the “apparent KD of MS2 coat protein” value is 0.204 µM (input ligand: FMN 200 uM), 0.0124 µM under setting [4] and 0.0537 µM (input ligand: none).
Turning to “UGCCUGUCCGAAGGAUAUCUCAGCGAUCUUUUGGGAGAAGGUCGGAUGCAACAUGAGGAUCACCCAUGUGUAUAUAUCGCUGAC [Eternabot solution 48] (Eterna round: R96, puzzle: Same State NG 1)”, the “apparent KD of MS2 coat protein” value (input ligand: FMN 200 uM) is 0.0177 µM, the “apparent KD of MS2 coat protein” value under setting [4] is 0.0139 µM and the “apparent KD of MS2 coat protein” value (input ligand: none) was 0.0201 µM.
As for “UGCUACUGGGUAGGAUAUUUAGGAUAUGGGAAAGACUAAGUCUGUAGGUCACCUAACCCAGAAGGAGAGAAGGACCAUUCAGCU [pwkr ssNG2 2FMN + F9.33] (Eterna round: R96, puzzle: Same State NG 2)”, the “apparent KD of MS2 coat protein” value (input ligand: FMN 200 uM) was 0.0295 µM, the “apparent KD of MS2 coat protein” value under setting [4] was found to be 0.0553 µM and the “apparent KD of MS2 coat protein” value (input ligand: none) stood at 0.0327 µM.
The corresponding values for “UGCUAGGAUAUCUUGAGGAUCACCCAGGAGAAGGAGUAAAGUUAGGAUAUCCUGAGGAUCACCCAGGAGAAGGAGCACAUACUC [pwkr ssNG3 DX 2xF5 +2xFMN.14] (Eterna round: R96, puzzle: Same State NG 3)” are 0.0507 µM, 0.0798 µM and 0.0584 µM.
Turning to “UGGAGACAUCAAGGAUAUGCUACCGUUUCGGUAGCAGAAGGUGAUCACAUGAGGAUCACCCAUGUAUGCAUGCGUGAGCGUGCU [JL SSNG1 3.53] (Eterna round: R96, puzzle: Same State NG 1)”, the “apparent KD of MS2 coat protein” value runs as follows: (input ligand: FMN 200 uM) 0.779 µM; under setting [4], 0.0327 µM; (input ligand: none) 0.0354 µM.
Take “UGGAUCUAGGCUUGCCUGGGUCCAUGUUGACAUGAGGAUCACCCAUGUGUAUUUUAUAAGCUUUUUGUUUGUCAACU [JL A Humble Attempt mod 8] (puzzle: Sensor for hsa-mir-208a)”: the “apparent KD of MS2 coat protein” value is, setting by setting: under setting [1], 0.0257 µM; under setting [2], 0.0128 µM; under setting [3], 0.0284 µM.
As for “UGGCAACAUGAGGAUCACCCAUGUCAAACUAAUCGAGGAUAUGGGAACGAACAAGAGAAACUAGAAGGCGAACUUG [Altered State 1-11 - Jieux - Same State 1] (puzzle: Same State 1)”, the “apparent KD of MS2 coat protein” value runs as follows: under setting [1], 0.122 µM; under setting [2], 0.137 µM; under setting [3], 0.118 µM.
Take “UGGCUCAGACGAGGAUAUAUGUCUCGAGCUUCGGCUCGAGACAUGAGGAUCACCCAUGUAAUAACAUAGAAGGCGUCUGAGCCA [SSNG2/1-A2] (Eterna round: R96, puzzle: Same State NG 2)”: the “apparent KD of MS2 coat protein” value (input ligand: FMN 200 uM) stood at 0.0221 µM, the “apparent KD of MS2 coat protein” value under setting [4] came out at 0.0252 µM and the “apparent KD of MS2 coat protein” value (input ligand: none) was 0.0372 µM.
For “UGGCUCAGACGAGGAUAUGAUCAUGGCGCUUCGGCGCAUACAUGAGGAUCACCCAUGUAAAGUGAUCAGAAGGCGUCUGAGCCA [SSNG2/7-A2] (Eterna round: R96, puzzle: Same State NG 2)”, the “apparent KD of MS2 coat protein” value by setting is: (input ligand: FMN 200 uM) 0.0132 µM; under setting [4], 0.0116 µM; (input ligand: none) 0.0177 µM.
